Measurements taken from PMC4346803, “Supramolecular protein assembly supports immobilization of a cytochrome P450 monooxygenase system as water-insoluble gel” (Scientific Reports, 2015).

How the values were obtained:
[1] = target: PTDH-PCNA3_(R112C/T180C)-P450cam (Pseudomonas stutzeri | Sulfolobus solfataricus | Pseudomonas putida); assay: SEC; non-denatured fusion proteins, masses estimated against globular protein standards
[2] = target: PTDH-PCNA3_(R112C/T180C)-P450cam (Pseudomonas stutzeri | Sulfolobus solfataricus | Pseudomonas putida); assay: dynamic light scattering; diameters of the PTDH-fused proteins compared with their counterparts without PTDH fusion
[3] = target: PTDH-PCNA1_(G108C)-PdR (Pseudomonas stutzeri | Sulfolobus solfataricus | Pseudomonas putida); assay: SEC; non-denatured fusion proteins, masses estimated against globular protein standards
[4] = target: PTDH-PCNA1_(G108C)-PdR (Pseudomonas stutzeri | Sulfolobus solfataricus | Pseudomonas putida); assay: dynamic light scattering; diameters of the PTDH-fused proteins compared with their counterparts without PTDH fusion
[5] = target: the molecule itself; assay: SEC; non-denatured fusion proteins, masses estimated against globular protein standards

## PTDH-PCNA3_(R112C/T180C)-P450cam
[1]
  stoichiometry N: 2
[2]
  stoichiometry N: 2

## PTDH-PCNA1_(G108C)-PdR
[3]
  stoichiometry N: 2
[4]
  stoichiometry N: 2

B1: PTDH-PCNA2_(L171C)-PdX (other)
chain: MLPKLVITHRVHDEILQLLAPHCELMTNQTDSTLTREEILRRCRDAQAMMAFMPDRVDADFLQACPELRVVGCALKGFDNFDVDACTARGVWLTFVPDLLTVPTAELAIGLAVGLGRHLRAADAFVRSGEFQGWQPQFYGTGLDNATVGILGMGAIGLAMADRLQGWGATLQYHARKALDTQTEQRLGLRQVACSELFASSDFILLALPLNADTQHLVNAELLALVRPGALLVNPCRGSVVDEAAVLAALERGQLGGYAADVFEMEDWARADRPRLIDPALLAHPNTLFTPHIGSAVRAVRLEIERCAAQNIIQVLAGARPINAANRLPKAEPAACMKAKVIDAVSFSYILRTVGDFLSEANFIVTKEGIRVSGIDPSRVVFLDIFLPSSYFEGFEVSQEKEIIGFKLEDVNDILKRVLKDDTLILSSNESKLTLTFDGEFTRSFELPLIQVESTQPPSVNLEFPFKAQLLTITFADIIDELSDLGEVLNIHSKENKLYFEVIGDCSTAKVELSTDNGTLLEASGADVSSSYGMEYVANTTKMRRASDSMELYFGSQIPLKLRFKLPQEGYGDFYIAPRADSKVVYVSHDGTRRELDVADGVSLMQAAVSNGIYDIVGDCGGSASCATCHVYVNEAFTDKVPAANEREIGMLESVTAELKPNSRLSCQIIMTPELDGIVVDVPDRQW
[5]
  stoichiometry N: 2
